In US20170037124A1 (Regeneron, published 2017):

How the values were obtained:
[1] = target: T1, anti-mFc (AMC) Octet biosensor, blank; assay: BLI Octet, blank AMC sensor, 100 nM mAb, 25C
T1 construct: Sensor without captured protein, used as blank; also called Blank AMC Sensor
Method: (§1) Binding of ANGPTL8 antibodies to human and monkey ANGPTL8 proteins was investigated using Bio-layer Interferometry with an Octet HTX biosensor platform (ForteBio, A Division of Pall Life Sciences). All experiments were performed at 25° C. in 10 mM HEPES pH 7.4, 150 mM NaCl, 0.05% v/v Surfactant Tween-20, and 1 mg/ml BSA with the reaction multiwell plate agitated at 1000 rpm. Approximately 1.6 nm of human ANGPTL8 produced with a C-terminal mouse IgG2a Fc tag (hANGPTL8-mFc; SEQ ID NO: 340) or cynomolgus monkey ANGPTL8 produced with a C-terminal mouse IgG2a Fc tag (MfANGPTL8-mFc; SEQ ID NO: 341) was captured onto anti-mFc (AMC) Octet biosensors by submerging the sensors into wells containing 10 μg/mL of each protein for 4 minutes. Under the same conditions a negative control protein with the same mFc tag (hLDLR-mFc) was also coupled to the AMC sensor. All four sensors, […] and one blank, were then submerged into wells containing 100 nM of different ANGPTL8 monoclonal antibodies or an isotype control for 4 minutes.

[2] = target: T2, human ANGPTL8 expressed with C-terminal mouse IgG2a Fc tag (hANGPTL8-mFc; SEQ ID NO: 340) (human); assay: BLI Octet, captured antigen, 100 nM mAb, 25C
T2 construct: also called Angiopoietin-like protein 8
T2 chain: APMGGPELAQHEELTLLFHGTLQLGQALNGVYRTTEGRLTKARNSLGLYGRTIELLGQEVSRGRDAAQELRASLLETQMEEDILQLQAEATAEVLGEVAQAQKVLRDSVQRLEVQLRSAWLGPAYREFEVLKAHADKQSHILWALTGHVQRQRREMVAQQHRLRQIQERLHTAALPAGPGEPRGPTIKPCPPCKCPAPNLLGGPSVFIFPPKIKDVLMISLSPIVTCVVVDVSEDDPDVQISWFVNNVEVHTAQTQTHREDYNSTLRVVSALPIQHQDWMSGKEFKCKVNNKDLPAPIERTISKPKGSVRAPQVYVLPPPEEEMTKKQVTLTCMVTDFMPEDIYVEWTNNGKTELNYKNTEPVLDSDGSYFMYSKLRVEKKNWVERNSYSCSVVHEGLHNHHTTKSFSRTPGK
Method: as §1

[3] = target: T3, negative control protein with the same mFc tag (hLDLR-mFc) (human; mouse, UniProt P01130 22-788, limits assumed); assay: BLI Octet, captured antigen, 100 nM mAb, 25C
T3 construct: also called Irrelevant control; not shown: mouse IgG2a Fc tag (same mFc tag as hANGPTL8-mFc)
T3 sequence (P01130 22-788 limits assumed): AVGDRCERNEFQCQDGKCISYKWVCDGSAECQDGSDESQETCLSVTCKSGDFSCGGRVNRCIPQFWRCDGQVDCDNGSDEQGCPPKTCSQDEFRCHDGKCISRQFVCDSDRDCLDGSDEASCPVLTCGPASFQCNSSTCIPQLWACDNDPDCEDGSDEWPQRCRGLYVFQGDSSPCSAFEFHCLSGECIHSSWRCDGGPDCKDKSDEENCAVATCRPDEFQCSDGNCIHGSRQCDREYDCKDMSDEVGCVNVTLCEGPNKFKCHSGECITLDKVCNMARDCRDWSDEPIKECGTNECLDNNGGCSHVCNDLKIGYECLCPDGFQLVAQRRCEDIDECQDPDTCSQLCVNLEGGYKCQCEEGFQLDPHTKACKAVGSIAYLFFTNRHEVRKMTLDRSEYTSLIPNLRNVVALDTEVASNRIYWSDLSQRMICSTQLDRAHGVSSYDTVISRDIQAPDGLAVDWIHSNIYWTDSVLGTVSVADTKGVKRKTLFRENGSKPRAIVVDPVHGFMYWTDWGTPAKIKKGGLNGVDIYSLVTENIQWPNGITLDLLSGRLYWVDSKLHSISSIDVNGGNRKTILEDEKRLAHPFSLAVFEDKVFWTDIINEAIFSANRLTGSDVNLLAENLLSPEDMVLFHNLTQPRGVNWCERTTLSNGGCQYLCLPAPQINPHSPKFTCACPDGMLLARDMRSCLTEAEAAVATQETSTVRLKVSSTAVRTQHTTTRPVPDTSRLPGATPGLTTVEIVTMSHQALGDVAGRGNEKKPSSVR
Method: as §1

[4] = target: T4, monkey ANGPTL8 expressed with C-terminal mouse IgG2a Fc tag (MfANGPTL8-mFc; SEQ ID NO: 341) (cynomolgus monkey); assay: BLI Octet, captured antigen, 100 nM mAb, 25C
T4 construct: also called cynomolgus monkey ANGPTL8
T4 chain: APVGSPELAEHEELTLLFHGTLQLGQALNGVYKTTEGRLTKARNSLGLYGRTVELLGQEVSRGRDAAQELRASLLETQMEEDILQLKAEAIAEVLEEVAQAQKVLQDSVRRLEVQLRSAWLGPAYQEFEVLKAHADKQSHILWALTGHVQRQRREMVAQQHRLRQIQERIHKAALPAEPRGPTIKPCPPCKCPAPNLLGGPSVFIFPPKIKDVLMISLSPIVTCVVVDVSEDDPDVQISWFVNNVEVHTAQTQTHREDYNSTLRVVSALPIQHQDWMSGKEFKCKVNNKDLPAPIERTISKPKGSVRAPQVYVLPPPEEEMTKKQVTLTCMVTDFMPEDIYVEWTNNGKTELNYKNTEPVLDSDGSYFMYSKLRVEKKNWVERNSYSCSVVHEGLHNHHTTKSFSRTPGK
Method: as §1

[5] = target: T5, peptide from the N-terminal coiled-coil region of human ANGPTL3 (hANGPTL3 peptide, SEQ ID NO: 338) (human); assay: SPR, captured mAb, 500 nM peptide, 25C
T5 construct: also called hANGPTL3 shift peptide
T5 peptide: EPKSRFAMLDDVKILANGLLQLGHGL
Method: (§2) The assay utilized a format where ANGPTL8 antibodies were captured on the sensor surface and peptides were injected over the antibody surface. Peptides from the N-terminal coiled-coil region of human ANGPTL3 (hANGPTL3 peptide, SEQ ID NO: 338) and human ANGPTL4 (hANGPTL4 peptide, SEQ ID NO: 339) were also included as controls. Also included was a control antibody (H4H268P from US2011/0159015A1) that binds to the ANGPTL4 peptide and a negative isotype control antibody. All binding studies were performed in 10 mM HEPES pH 7.4, 150 mM NaCl, 3 mM EDTA, and 0.05% v/v Surfactant Tween-20 (HBS-ET running buffer) at 25° C. The HCA sensor surface was derivatized via amine coupling to a monoclonal mouse anti-human Fc antibody (GE, # BR-1008-39), and to this surface was captured approximately 1000 RU of each ANGPTL8 antibody or control antibody. Peptide stock solutions were diluted in HBS-ET running buffer to 500 nM and injected over the antibody-captured surfaces for 4 minutes at a flow rate of 30 μL/minute followed by the dissociation of bound peptide in HBS-ET running buffer for 10 minutes.
(§3) Dissociative half-lives (t½) were calculated from kd as: […]

[6] = target: T6, peptide from the N-terminal coiled-coil region of human ANGPTL4 (hANGPTL4 peptide, SEQ ID NO: 339) (human); assay: SPR, captured mAb, 500 nM peptide, 25C
T6 peptide: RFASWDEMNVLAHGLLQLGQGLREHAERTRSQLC
Method: as §2, §3

[7] = target: T7, human ANGPTL8 peptide (hANGPTL8 peptide, SEQ ID NO: 337) (human); assay: SPR, captured mAb, 500 nM peptide, 25C
T7 construct: also called N-terminal region ANGPTL8 peptide
T7 peptide: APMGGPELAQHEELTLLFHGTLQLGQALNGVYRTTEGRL
Method: as §2, §3

[8] = target: T2, human ANGPTL8 expressed with C-terminal …; assay: BLI Octet, captured antigen, 100 nM mAb, 25C; background 0.03 nm
Method: as §1

Binder | mAb Binding Response (nm) [1] [nm] | mAb Binding Response (nm) [2] [nm] | mAb Binding Response (nm) [3] [nm] | mAb Binding Response (nm) [4] [nm] | 500 nM hANGPTL3 peptide Bound (RU) [5] [RU] | binding result [5] | 500 nM hAngPTL4 peptide Bound (RU) [6] [RU] | binding result [6] | 500 nM hANGPTL8 peptide Bound (RU) [7] [RU] | binding result [7] | binding signal, fold above background [8] [fold] | koff [7] [s⁻¹] | t½ [7] [h]
H4H15334P (antibody, human IgG4, V domains shown, H4H prefix: human IgG4 Fc) VH: QVQLQESGPGLVKPSQTLSLTCTVSGGSINSGGYYWNWIRQHPGKGLEWIGYIYYSGSTYFNPSLKSRVTISIDTSKNQFSLKLSSVTAADTAVYYCAREGIYAFDYWGQGTLVTVSS VL: DIQMTQSPSSLSASVGDRVTITCRASQGIRNDLGWYQQKPGKAPKRLIYSASSLQSGVPSRFGGSGSGTEFTLTISSLQPEDFATYYCLQHNSYPWTFGQGTKVEIK | 0.03 | 0.05 | 0 | 0.01 | 0 | no binding (tested: <9 RU at 500 nM peptide) | 1 | no binding (tested: <9 RU at 500 nM peptide) | 0 | no binding (tested: <9 RU at 500 nM peptide) | – | – | –
H4H15346P (antibody, human IgG4, V domains shown, H4H prefix: human IgG4 Fc) VH: EVQLVESGGGLVQPGGSLRLSCAASGFTFSNYAMSWVRQAPGKGLEWVSTISDTGGSTYYADSVKGRFALSRDNSRNTLYLQMNSLRAEDTAVYYCAKEGPPDYWGQGTLVTVSS VL: EIVLTQSPATLSLSPGERATLSCRTSQSVSIYLAWYQQKPGQAPRLLIYDASKRATGIPARFSGRGSGTDFTLTISSLEPEDFAVYYCQQRSNWPLTFGQGTRLEIK | -0.01 | 0.07 | 0 | 0.01 | 0 | no binding (tested: <9 RU at 500 nM peptide) | 0 | no binding (tested: <9 RU at 500 nM peptide) | 0 | no binding (tested: <9 RU at 500 nM peptide) | – | – | –
H4H15321P (antibody, human IgG4, V domains shown, H4H prefix: human IgG4 Fc) VH: EVQLVESGGGLVQPGGSLRLSCAASGFTFSSYAMSWVRQAPGKGLEWVSAITGSGGRTYYADSVKGRFTISRDNAKNTLYLQMNSLRAEDTAVYYCAKNFPFDYWGQGTLVTVSS VL: not shown | 0 | 0.36 | 0.01 | 0.51 | 0 | no binding (tested: <9 RU at 500 nM peptide) | 0 | no binding (tested: <9 RU at 500 nM peptide) | 61 | – | ≥ 10 | 8.29e-05 | 2.32
H4H15362P2 (antibody, human IgG4, V domains shown, H4H prefix: human IgG4 Fc) VH: QVQLVESGGGVVQPGRSLRLSCAASGFTFSSYGMHWVRQAPGKGLEWVAVIWYDGSNKYYADSVKGRFTISRDNSKNTLYLQMNSLRAEDTAVYYCARDWVRFLEWFPHFDYWGQGTLVTVSS VL: not shown | 0.01 | 0.39 | – | 0.36 | 0 | no binding (tested: <9 RU at 500 nM peptide) | 0 | no binding (tested: <9 RU at 500 nM peptide) | 0 | no binding (tested: <9 RU at 500 nM peptide) | ≥ 10 | – | –
H4H15343P (antibody, human IgG4, V domains shown, H4H prefix: human IgG4 Fc) VH: QVQLVESGGGVVQPGRSLRLSCAASGFTFSSYGMHWVRQAPGKGLEWVAVISYAGSNKYYADSVKGRFTISRDNSKNTLYLQMNGLRAEDTAVYYCAKDPYGDYEGVLDYWGQGTLVTVSS VL: DIQMTQSPSSLSASVGDRVTITCQASQDISNYLNWYQQKPGKAPKLLIYDASNLETGVPSRFSGSGSGTDFTFTISSLQPEDIATYYCQQYDHLPITFGQGTRLEIK | 0.01 | 0.17 | -0.01 | 0.2 | 0 | no binding (tested: <9 RU at 500 nM peptide) | 0 | no binding (tested: <9 RU at 500 nM peptide) | 0 | no binding (tested: <9 RU at 500 nM peptide) | – | – | –
H4H15369P2 (antibody, human IgG4, V domains shown, H4H prefix: human IgG4 Fc) VH: EVQLVESGGGLVQPGGSLRLSCVGTGFTFSNYAMSWVRQAPGKGLEWVSGISGRSSGTFYADSVKGRFTISRDNSQNTLYLQMNSLGAEDTAVYYCAKVSRYNWDYVPFDFWGQGTLVTVSS VL: not shown | 0.01 | 0.14 | 0 | 0.17 | 0 | no binding (tested: <9 RU at 500 nM peptide) | 0 | no binding (tested: <9 RU at 500 nM peptide) | 0 | no binding (tested: <9 RU at 500 nM peptide) | – | – | –
